Laboratory results as given in publication PMC3024981, “It Takes Two to Tango: Defining an Essential Second Active Site in Pyridoxal 5′-Phosphate Synthase” (PLoS ONE, 2011).
“And” between values parts separate entries of the source, which are not always exact repeats. Identical values can stand only once.

T1: Pdx1 R288K (Bacillus subtilis), native (untagged) (Bacillus subtilis, UniProt P37527 1-294, R288K)
T1 construct: Pdx1, synthase subunit of PLP synthase, Bacillus subtilis; also called Pdx1 R288K mutein; source: site directed mutagenesis of Pdx1; expressed and purified as described by Raschle et al. (2005)
T1 sequence: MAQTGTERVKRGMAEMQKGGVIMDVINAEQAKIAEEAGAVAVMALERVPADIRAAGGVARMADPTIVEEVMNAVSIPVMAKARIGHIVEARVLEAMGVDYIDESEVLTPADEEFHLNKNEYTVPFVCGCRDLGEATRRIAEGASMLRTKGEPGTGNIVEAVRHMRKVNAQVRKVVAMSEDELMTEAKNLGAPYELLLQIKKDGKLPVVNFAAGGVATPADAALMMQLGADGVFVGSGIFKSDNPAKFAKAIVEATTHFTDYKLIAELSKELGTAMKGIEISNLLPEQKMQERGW

B1: Pdx1 wild type (Bacillus subtilis), native (untagged) (enzyme)
chain: MAQTGTERVKRGMAEMQKGGVIMDVINAEQAKIAEEAGAVAVMALERVPADIRAAGGVARMADPTIVEEVMNAVSIPVMAKARIGHIVEARVLEAMGVDYIDESEVLTPADEEFHLNKNEYTVPFVCGCRDLGEATRRIAEGASMLRTKGEPGTGNIVEAVRHMRKVNAQVRKVVAMSEDELMTEAKNLGAPYELLLQIKKDGKLPVVNFAAGGVATPADAALMMQLGADGVFVGSGIFKSDNPAKFAKAIVEATTHFTDYKLIAELSKELGTAMKGIEISNLLPEQRMQERGW
notes: Pdx1, synthase subunit of PLP synthase, Bacillus subtilis; construct pETBsPdx1 of Raschle et al. (2005); Native means untagged; Dodecamer by SEC-MALS; also called BsPdx1 wild type; PLP synthase synthase subunit; source: construct pETBsPdx1; expressed and purified as described by Raschle et al. (2005); copies: 12
B2: Pdx1 R288A (Bacillus subtilis), native (untagged) (enzyme)
chain: MAQTGTERVKRGMAEMQKGGVIMDVINAEQAKIAEEAGAVAVMALERVPADIRAAGGVARMADPTIVEEVMNAVSIPVMAKARIGHIVEARVLEAMGVDYIDESEVLTPADEEFHLNKNEYTVPFVCGCRDLGEATRRIAEGASMLRTKGEPGTGNIVEAVRHMRKVNAQVRKVVAMSEDELMTEAKNLGAPYELLLQIKKDGKLPVVNFAAGGVATPADAALMMQLGADGVFVGSGIFKSDNPAKFAKAIVEATTHFTDYKLIAELSKELGTAMKGIEISNLLPEQAMQERGW
notes: Pdx1, synthase subunit of PLP synthase, Bacillus subtilis; also called Pdx1 R288A mutein; source: site directed mutagenesis of Pdx1; expressed and purified as described by Raschle et al. (2005); copies: 12
B3: Pdx1 K187A (Bacillus subtilis), hexahistidine tagged (enzyme)
chain: MAQTGTERVKRGMAEMQKGGVIMDVINAEQAKIAEEAGAVAVMALERVPADIRAAGGVARMADPTIVEEVMNAVSIPVMAKARIGHIVEARVLEAMGVDYIDESEVLTPADEEFHLNKNEYTVPFVCGCRDLGEATRRIAEGASMLRTKGEPGTGNIVEAVRHMRKVNAQVRKVVAMSEDELMTEAANLGAPYELLLQIKKDGKLPVVNFAAGGVATPADAALMMQLGADGVFVGSGIFKSDNPAKFAKAIVEATTHFTDYKLIAELSKELGTAMKGIEISNLLPEQRMQERGW
notes: Pdx1, synthase subunit of PLP synthase, Bacillus subtilis; parent construct pETBsPdx1-His6 of Strohmeier et al. (2006); It is in a dodecamer:hexamer equilibrium by SEC-MALS; also called Pdx1 K187A mutein; source: site directed mutagenesis of Pdx1; expressed and purified as described by Raschle et al. (2005); not shown: His6, C-terminal, kept
B4: Pdx2 (glutaminase, activated by Pdx1) (Bacillus subtilis subsp. subtilis str. 168) (protein)
chain: MLTIGVLGLQGAVREHIHAIEACGAAGLVVKRPEQLNEVDGLILPGGESTTMRRLIDTYQFMEPLREFAAQGKPMFGTCAGLIILAKEIAGSDNPHLGLLNVVVERNSFGRQVDSFEADLTIKGLDEPFTGVFIRAPHILEAGENVEVLSEHNGRIVAAKQGQFLGCSFHPELTEDHRVTQLFVEMVEEYKQKALV
notes: Pdx2 with untagged wild-type Pdx1; with Pyridoxal 5'-phosphate synthase subunit PdxS
B5: Pdx2 H170N (Bacillus subtilis), catalytically inert mutein (enzyme, UniProt P37528 1-196, looked up)
chain: MLTIGVLGLQGAVREHIHAIEACGAAGLVVKRPEQLNEVDGLILPGGESTTMRRLIDTYQFMEPLREFAAQGKPMFGTCAGLIILAKEIAGSDNPHLGLLNVVVERNSFGRQVDSFEADLTIKGLDEPFTGVFIRAPHILEAGENVEVLSEHNGRIVAAKQGQFLGCSFNPELTEDHRVTQLFVEMVEEYKQKALV
notes: Pdx2, glutaminase subunit of PLP synthase, Bacillus subtilis; It was used together with glutamine (Michaelis complex of Pdx2 H170N and glutamine); also called Pdx2-His6 H170N; Pdx2 H170N mutein; source: construct Pdx2-His6 H170N of Strohmeier et al. (2006); expressed and purified as described by Raschle et al. (2005)
B6: PLP synthase (Pdx1 + Pdx2), native Pdx1 (Bacillus subtilis subsp. subtilis str. 168) (protein)
chain: AQTGTERVKRGMAEMQKGGVIMDVINAEQAKIAEEAGAVAVMALERVPADIRAAGGVARMADPTIVEEVMNAVSIPVMAKARIGHIVEARVLEAMGVDYIDESEVLTPADEEFHLNKNEYTVPFVCGCRDLGEATRRIAEGASMLRTKGEPGTGNIVEAVRHMRKVNAQVRKVVAMSEDELMTEAKNLGAPYELLLQIKKDGKLPVVNFAAGGVATPADAALMMQLGADGVFVGSGIFKSDNPAKFAKAIVEATTHFTDYKLIAELSKELGTAMKGIEISNLLPEQRMQERGW
notes: complex of untagged Pdx1 with Pdx2; 24-subunit complex; with Pyridoxal 5'-phosphate synthase subunit PdxT
B7: PLP synthase (Pdx1-His6 + Pdx2) (Bacillus subtilis subsp. subtilis str. 168; H115A) (protein)
chain: AQTGTERVKRGMAEMQKGGVIMDVINAEQAKIAEEAGAVAVMALERVPADIRAAGGVARMADPTIVEEVMNAVSIPVMAKARIGHIVEARVLEAMGVDYIDESEVLTPADEEFALNKNEYTVPFVCGCRDLGEATRRIAEGASMLRTKGEPGTGNIVEAVRHMRKVNAQVRKVVAMSEDELMTEAKNLGAPYELLLQIKKDGKLPVVNFAAGGVATPADAALMMQLGADGVFVGSGIFKSDNPAKFAKAIVEATTHFTDYKLIAELSKELGTAMKGIEISNLLPEQRMQERGW
notes: complex of C-terminally hexahistidine-tagged Pdx1 with Pdx2-His6; with Pyridoxal 5'-phosphate synthase subunit PdxT
B8: PLP synthase (Pdx1-His6 + Pdx2) (Bacillus subtilis subsp. subtilis str. 168; E105D) (protein)
chain: AQTGTERVKRGMAEMQKGGVIMDVINAEQAKIAEEAGAVAVMALERVPADIRAAGGVARMADPTIVEEVMNAVSIPVMAKARIGHIVEARVLEAMGVDYIDESDVLTPADEEFHLNKNEYTVPFVCGCRDLGEATRRIAEGASMLRTKGEPGTGNIVEAVRHMRKVNAQVRKVVAMSEDELMTEAKNLGAPYELLLQIKKDGKLPVVNFAAGGVATPADAALMMQLGADGVFVGSGIFKSDNPAKFAKAIVEATTHFTDYKLIAELSKELGTAMKGIEISNLLPEQRMQERGW
notes: as for B7
B9: PLP synthase (Pdx1-His6 + Pdx2) (Bacillus subtilis subsp. subtilis str. 168; R138A) (protein)
chain: AQTGTERVKRGMAEMQKGGVIMDVINAEQAKIAEEAGAVAVMALERVPADIRAAGGVARMADPTIVEEVMNAVSIPVMAKARIGHIVEARVLEAMGVDYIDESEVLTPADEEFHLNKNEYTVPFVCGCRDLGEATRAIAEGASMLRTKGEPGTGNIVEAVRHMRKVNAQVRKVVAMSEDELMTEAKNLGAPYELLLQIKKDGKLPVVNFAAGGVATPADAALMMQLGADGVFVGSGIFKSDNPAKFAKAIVEATTHFTDYKLIAELSKELGTAMKGIEISNLLPEQRMQERGW
notes: as for B7
B10: PLP synthase (Pdx1-His6 + Pdx2) (Bacillus subtilis subsp. subtilis str. 168; K187A) (protein)
chain: AQTGTERVKRGMAEMQKGGVIMDVINAEQAKIAEEAGAVAVMALERVPADIRAAGGVARMADPTIVEEVMNAVSIPVMAKARIGHIVEARVLEAMGVDYIDESEVLTPADEEFHLNKNEYTVPFVCGCRDLGEATRRIAEGASMLRTKGEPGTGNIVEAVRHMRKVNAQVRKVVAMSEDELMTEAANLGAPYELLLQIKKDGKLPVVNFAAGGVATPADAALMMQLGADGVFVGSGIFKSDNPAKFAKAIVEATTHFTDYKLIAELSKELGTAMKGIEISNLLPEQRMQERGW
notes: as for B7
B11: PLP synthase (Pdx1-His6 + Pdx2) (Bacillus subtilis subsp. subtilis str. 168) (protein)
chain: AQTGTERVKRGMAEMQKGGVIMDVINAEQAKIAEEAGAVAVMALERVPADIRAAGGVARMADPTIVEEVMNAVSIPVMAKARIGHIVEARVLEAMGVDYIDESEVLTPADEEFHLNKNEYTVPFVCGCRDLGEATRRIAEGASMLRTKGEPGTGNIVEAVRHMRKVNAQVRKVVAMSEDELMTEAKNLGAPYELLLQIKKDGKLPVVNFAAGGVATPADAALMMQLGADGVFVGSGIFKSDNPAKFAKAIVEATTHFTDYKLIAELSKELGTAMKGIEISNLLPEQRMQERGW
notes: as for B7
B12: PLP synthase (Pdx1-His6 + Pdx2) (Bacillus subtilis subsp. subtilis str. 168; H115A/R138A) (protein)
chain: AQTGTERVKRGMAEMQKGGVIMDVINAEQAKIAEEAGAVAVMALERVPADIRAAGGVARMADPTIVEEVMNAVSIPVMAKARIGHIVEARVLEAMGVDYIDESEVLTPADEEFALNKNEYTVPFVCGCRDLGEATRAIAEGASMLRTKGEPGTGNIVEAVRHMRKVNAQVRKVVAMSEDELMTEAKNLGAPYELLLQIKKDGKLPVVNFAAGGVATPADAALMMQLGADGVFVGSGIFKSDNPAKFAKAIVEATTHFTDYKLIAELSKELGTAMKGIEISNLLPEQRMQERGW
notes: as for B7

Key:
[1] = target: the molecule itself; assay: SEC-MALS; Superdex 200 10/300 GL, 100 µl at 1 mg/ml; 50 mM potassium phosphate pH 7.5, 50 mM potassium chloride, 0.01% sodium azide; miniDAWN TREOS; dodecamer to hexamers
[2] = substrate: NC(=O)CC[C@H](N)C(=O)O; assay: coupled glutaminase assay; type: biochemical, Bacillus subtilis; conditions: activated by wild-type Pdx1, 50 mM Tris-Cl pH 7.5, 37°C
Description: coupled glutaminase assay on Pdx2 (glutaminase, activated by Pdx1)

[3] = target: B2; assay: other fluorescence titration; intrinsic protein fluorescence of Pdx1 titrated with increasing concentrations of Pdx2 H170N in the presence of glutamine, without R5P; decrease in fluorescence intensity; done as described in ref. 21; conditions: both partners purified
[4] = target: B1; assay: as above; conditions: both partners purified
[5] = target: T1, Pdx1 R288K (Bacillus subtilis), native …; assay: as above; conditions: both partners purified
purified protein = substrate: O=CC(O)COP(=O)(O)O; assay: purified protein; type: biochemical, Bacillus subtilis; conditions: R5P and glutamine as co-substrates, 50 mM Tris-Cl pH 7.5, 37°C

Binder	Km (purified protein; His-tagged proteins) [µM]	kcat (purified protein; His-tagged proteins) [s⁻¹]	kcat/Km (purified protein; His-tagged proteins) [M⁻¹ s⁻¹]	other results
B1				stoichiometry N [1]: 12
B2				stoichiometry N [1]: 12
B3				stoichiometry N [1]: 12 and 6
B4				Km [2]: 1160 ± 180 µM; kcat [2]: 0.0295 ± 0.00133 s⁻¹; kcat/Km [2]: 25.5 M⁻¹ s⁻¹
B5				binding result [3]: binds; binding result [4]: binds; binding result [5]: binds
B6				Km (purified protein): 186 ± 17 µM; kcat (purified protein): 0.00055 ± 3.3e-05 s⁻¹; kcat/Km (purified protein): 2.95 M⁻¹ s⁻¹
B7	229 ± 55	0.00013 ± 0	0.583	
B8	249 ± 26	0.000233 ± 1.7e-05	0.933	
B9	262 ± 26	0.0002 ± 1.7e-05	0.767	
B10	267 ± 18	0.0005 ± 1.7e-05	1.87	
B11	155 ± 23	0.0006 ± 8.3e-05	3.87	
B12	307 ± 75	0.0001 ± 0	0.333	
